According to US9081020B2, “Mutant proteins and methods for selecting them” (Heptares Therapeutics Limited, priority 2008, dated 2015):
Positions count from the first letter of the chain named. Numbers in names are those of the source.

B1: I383/21: Sequencing established that I383/21 is I383G (M1 mAChR) (protein, UniProt P11229 1-460, looked up, variant I383G)
Muscarinic acetylcholine …: MNTSAPPAVSPNITVLAPGKGPWQVAFIGITTGLLSLATVTGNLLVLISFKVNTELKTVNNYFLLSLACADLIIGTFSMNLYTTYLLMGHWALGTLACDLWLALDYVASNASVMNLLLISFDRYFSVTRPLSYRAKRTPRRAALMIGLAWLVSFVLWAPAILFWQYLVGERTVLAGQCYIQFLSQPIITFGTAMAAFYLPVTVMCTLYWRIYRETENRARELAALQGSETPGKGGGSSSSSERSQPGAEGSPETPPGRCCRCCRAPRLLQAYSWKEEEEEDEGSMESLTSSEGEEPGSEVVIKMPMVDPEAQAPTKQPPRSSPNTVKRPTKKGRDRAGKGQKPRGKEQLAKRKTFSLVKEKKAARTLSAILLAFILTWTPYNGMVLVSTFCKDCVPETLWELGYWLCYVNSTINPMCYALCNKAFRDTFRLLLLCRWDKRRWRKIPKRPGSVHRTPSRQC
B2: L65V: M1 mAChR mutant L65V selected from random mutagenesis screen (protein)
chain: B1 Muscarinic acetylcholine … with L65V, G383I
B3: L148A: M1 mAChR mutant L148A (protein)
chain: B1 Muscarinic acetylcholine … with L148A, G383I
B4: M384/27: Sequencing established that M384/27 is M384C (M1 mAChR) (protein, UniProt P11229 1-460, looked up, variant M384C)
Muscarinic acetylcholine …: B1 Muscarinic acetylcholine … with G383I, M384C
B5: M384/40: Sequencing established that M384/40 is M384G (M1 mAChR) (protein, UniProt P11229 1-460, looked up, variant M384G)
Muscarinic acetylcholine …: B1 Muscarinic acetylcholine … with G383I, M384G
B6: L65A/I73A: M1 mAChR double mutant, Ala mutation on L65A background (protein, UniProt P11229 1-460, looked up, variant L65A I73A)
Muscarinic acetylcholine …: B1 Muscarinic acetylcholine … with L65A, I73A, G383I
B7: L65A/I74A: M1 mAChR double mutant, Ala mutation on L65A background (protein, UniProt P11229 1-460, looked up, variant L65A I74A)
Muscarinic acetylcholine …: B1 Muscarinic acetylcholine … with L65A, I74A, G383I
B8: L65A/V409A: M1 mAChR double mutant, Ala mutation on L65A background (protein, UniProt P11229 1-460, looked up, variant L65A V409A)
Muscarinic acetylcholine …: B1 Muscarinic acetylcholine … with L65A, G383I, V409A
B9: L65A/E397A: M1 mAChR double mutant, Ala mutation on L65A background (protein, UniProt P11229 1-460, looked up, variant L65A E397A)
Muscarinic acetylcholine …: B1 Muscarinic acetylcholine … with L65A, G383I, E397A
B10: L65A/W101A: M1 mAChR double mutant, W101A on L65A background (protein, UniProt P11229 1-460, looked up, variant L65A W101A)
Muscarinic acetylcholine …: B1 Muscarinic acetylcholine … with L65A, W101A, G383I
B11: L65A/Y82A: M1 mAChR double mutant, Ala mutation on L65A background (protein, UniProt P11229 1-460, looked up, variant L65A Y82A)
Muscarinic acetylcholine …: B1 Muscarinic acetylcholine … with L65A, Y82A, G383I
B12: L65A/T202A: M1 mAChR double mutant, Ala mutation on L65A background (protein, UniProt P11229 1-460, looked up, variant L65A T202A)
Muscarinic acetylcholine …: B1 Muscarinic acetylcholine … with L65A, T202A, G383I
B13: L65F: M1 mAChR mutant L65F, homologous to M4 mAChR (protein)
chain: B1 Muscarinic acetylcholine … with L65F, G383I
B14: L65A/L144A: M1 mAChR double mutant, Ala mutation on L65A background (protein, UniProt P11229 1-460, looked up, variant L65A L144A)
Muscarinic acetylcholine …: B1 Muscarinic acetylcholine … with L65A, L144A, G383I
B15: I73L: M1 mAChR mutant, substitution of another aliphatic amino acid at Ile 73 (protein)
chain: B1 Muscarinic acetylcholine … with I73L, G383I

Test system: M1 mAChR
Test: not given
Assay type: physicochemical
Details: 0.82% BOG, 3 h, 4° C., whole E. coli BL21 cells; single culture; listed as I383/21 1
Method: This concentration was determined by analysing wild-type M1 mAChRs expressed in the inner cell membranes of intact E. Coli strain BL21 cells. The cells were pre-labelled with the radiolabelled antagonist 3H—N-methyl scopolamine and resuspended to a pre-determined cell density (Absorbance at 600 nm=2.0) in a chosen buffer (in this case 50 mM sodium phosphate, 1 mM EDTA, pH 7.5). […] The wild-type M1 mAChRs were titrated by the addition of increasing concentrations of beta octyl glucoside dissolved in the same buffer for different times (e.g. 1 h, 2 h, 3 h, 5 h, 15 h) and at different temperatures (e.g. 4° C., 15° C.). The loss of specifically-bound radioligand was then measured after recovering the cells by centrifugation (15000×g, 15 min.). In the example, the centrifugation step was performed on duplicate 1 ml aliquots of the cells. The experiment was repeated 3 times. […] It will be appreciated that the cell density, detergent concentration and other parameters of the assay may be varied to adjust the loss of activity as appropriate.
(a) A state of in-situ destabilisation of a particular membrane protein in a particular cell membrane as a result of the addition of a particular concentration of a particular detergent, can be defined by the loss of the characteristic specific ligand binding activity of the membrane protein for a particular ligand of interest in the presence of a defined concentration of a particular detergent molecule or other solubilising agent.
A preferred version of the assay is destabilisation of a membrane protein-ligand complex in a detergent-enriched membrane. The membrane protein, either in a membrane preparation, or in intact cells in-vivo or ex-vivo, is pre-incubated with a labelled version of the ligand, the label, for instance, being a radioactive label, or a fluorescent label, and the binding step preferably being allowed to proceed to equilibrium, defined as the achievement of a time-invariant level of binding. To define membrane protein-independent, or non-specific, binding the binding step is performed with the addition of a second non-labelled ligand, called the competing ligand, having an appropriate membrane protein-specific pharmacology, at a concentration sufficient fully to occupy the binding sites of the membrane protein and thereby exclude the binding of the labelled ligand. The difference between the binding of the labelled ligand in the absence and presence of the competing ligand is defined as the specific binding of the labelled ligand. Measurement of binding requires a suitable method for separating and measuring bound ligand. Characteristically, this involves centrifugation of intact cells or membranes for a time and at a centrifugal force adequate to pellet them (for instance, 15000×g for 15 min in the case of E. coli cells, or 100,000×g for plasma membrane preparations), or filtration of a membrane suspension e.g. through a suitable filter paper such as glass fibre paper e.g. GF-B or GF-C followed by counting of radioactivity. Alternatively, it might involve the measurement of an optical signal such as enhancement of fluorescence emission in the case of fluorescent ligands.
To perform the in-situ destabilisation assay, a pre-determined concentration of the detergent or other destabilising agent of choice is mixed with a membrane or cell suspension containing the pre-labelled membrane protein in an appropriate buffer composition at a particular temperature and for a particular time, determined as described below.

Molecule	% 3H-NMS retained BOG [%]
B1	70

Same assay, conditions: 0.82% BOG, 3 h, 4° C., whole E. coli BL21 cells; single culture; listed as I383/21 2

Molecule	% 3H-NMS retained BOG [%]
B1	62

Same assay, conditions: 0.82% BOG, 3 h, 4° C., whole E. coli BL21 cells; single culture; listed as L65V 1

Molecule	% 3H-NMS retained BOG [%]
B2	81

Same assay, conditions: 0.82% BOG, 3 h, 4° C., whole E. coli BL21 cells; single culture; listed as L65V 2

Molecule	% 3H-NMS retained BOG [%]
B2	95

Same assay, conditions: 0.82% BOG, 3 h, 4° C., whole E. coli BL21 cells; single culture; listed as L148A 1

Molecule	% 3H-NMS retained BOG [%]
B3	74

Same assay, conditions: 0.82% BOG, 3 h, 4° C., whole E. coli BL21 cells; single culture; listed as L148A 2

Molecule	% 3H-NMS retained BOG [%]
B3	69

Same assay, conditions: 0.82% BOG, 3 h, 4° C., whole E. coli BL21 cells; single culture; listed as M384/27 1

Molecule	% 3H-NMS retained BOG [%]
B4	63

Same assay, conditions: 0.82% BOG, 3 h, 4° C., whole E. coli BL21 cells; single culture; listed as M384/27 2

Molecule	% 3H-NMS retained BOG [%]
B4	73

Same assay, conditions: 0.82% BOG, 3 h, 4° C., whole E. coli BL21 cells; single culture; listed as M384/40 1

Molecule	% 3H-NMS retained BOG [%]
B5	71

Same assay, conditions: 0.82% BOG, 3 h, 4° C., whole E. coli BL21 cells; single culture; listed as M384/40 2

Molecule	% 3H-NMS retained BOG [%]
B5	82

Same assay, conditions: 0.82% BOG, 3 h, 4° C.; % loss relative to wild-type control

Molecule	% loss/wt
B2	0.23
B1	0.64
B4	0.6
B5	0.44
B3	0.54

Same assay, conditions: 0.82% BOG, 3 h, 4° C.; mean of the cultures

Molecule	mean % retained [%]
B2	88
B1	66
B4	68
B5	76.5
B3	71.5

Same assay, conditions: 0.82% β-octyl glucoside, 3 h, 4° C.; % loss(control)/% loss(mutant); mean±SEM of 3

Molecule	Stability (βOG in-situ) % L65A control [% L65A control]
B6	46 ± 2
B7	51 ± 3
B8	34 ± 3
B9	166 ± 16
B10	136 ± 9
B11	175 ± 61
B2	115
B12	94 ± 1
B13	74 ± 16
B14	125 ± 16

Same assay, conditions: 0.82% β-octyl glucoside, L65A background

Molecule	in-situ stability relative to L65A, in words
B6	significantly reduced stability
B7	significantly reduced stability
B8	significantly reduced stability
B9	more stable
B10	more stable
B11	enhanced stability in 2 out of 3 experiments

Test system: M1 mAChR
Test: thermal stability (Tm) of partially purified [3H]NMS-labelled receptors in 0.1% dodecyl-β-maltoside
Assay type: physicochemical, rat
Details: 0.1% DDM, incubation time 30 min; mean±range/SEM
Method: For measurements of thermal melting temperature (Tm), [3H]NMS-labelled receptors were partially purified by immobilized metal ion affinity chromatography from cultures grown from single clones expressed in E. Coli BL21 cells, essentially as described in Hulme and Curtis, 1998 (21). Tm measurements were carried out after gel-filtration of partially purified receptors into 50 mM sodium phosphate, 5 mM β-mercaptoethanol and 0.1% dodecyl-β-maltoside (DDM), using an incubation time of 30 min. Values were tabulated as mean±range/SEM of 2 or more independent measurements (Table 3).

Molecule	Tm (0.1% DDM) [°C]
B6	27.0 ± 0.5
B7	28.8 ± 0.5
B8	26.8
B9	33.6 ± 0.2
B10	31.0 ± 0.4
B11	25.3 ± 0.5
B2	32.6 ± 0.4
B12	31.1 ± 0.2
B13	30.2 ± 0.5
B14	29.8 ± 1.0

Same assay, conditions: 0.1% dodecyl maltoside

Molecule	extra increment of stability (full thermal stability assay) [°C]
B15	0.9

Same assay, conditions: partially purified mutants, 0.1% DDM

Molecule	thermal stability (Tm) relative to L65A, in words
B6	reduced stability
B7	no change
B8	reduced stability
B9	increased stability
B10	increased stability
B11	Reduced stability
B2	more stable than L65A
B12	marginal increase
